Test results taken from the supplement of paper PMC11780869.

System: Bacillus subtilis
Assay: cleaved RNA product abundance (RNA/gDNA barcode ratio) relative to median wild-type variant (ratio to wild type); higher = more accumulation of the downstream cleavage product
Conditions: cleavage site: cggR-gapA (positions -7 to +36 mutated)
Summary of the method: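 The B. subtilis chromosome carried reporter mRNAs, truncated aprE or tetM, containing barcoded RNase Y cleavage-site windows mutagenized using oligos with a 9% error rate. After growth in LB at 37°C from OD600 0.0003 to 0.3, cleaved RNA was gel-selected, reverse transcribed and barcode-sequenced next to genomic DNA barcodes, with UMI collapsing. Each construct's RNA:gDNA barcode ratio was scaled to the median construct with the unmutated site. That scaled ratio is reported as cleaved product abundance.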

[1] = experiment (reporter, strain, medium): exp 4a: truncated aprE reporter, strain BJT201 with 2% xylose (RNase J1 expressed)
[2] = experiment (reporter, strain, medium): exp 2b: truncated aprE reporter, strain BJT200
[3] = experiment (reporter, strain, medium): exp 6: tetM reporter, strain 168

Sequence	cleaved RNA product abundance [1]	cleaved RNA product abundance [2]	cleaved RNA product abundance [3]
ACAGACGAAGGAGCCGCACAGAAGTTATTAAGGGATGAATAATCACTCAATATAAATATCTCTCACTTATTTAAA	0.125		
ACAGACGAAGGAGCCGCACAGAAGTTATTAAGGGATGAATAATCCCTAAATATAAATATCTCTCACTTATTTAAA	0.586		
ACAGACGAAGGAGCCGCACAGAAGTTATTAAGGGATGAATAATCCCTCAAAATAAATATCTCTCACTTATTTAAA	0.337		
ACAGACGAAGGAGCCGCACAGAAGTTATTAAGGGATGAATAATCCCTCAACATAAATATCTCTCACTTATTTAAA	0.294	0.198	
ACAGACGAAGGAGCCGCACAGAAGTTATTAAGGGATGAATAATCCCTCAATAAAAATATCTCTCACTTATTTAAA	0.116		
ACAGACGAAGGAGCCGCACAGAAGTTATTAAGGGATGAATAATCCCTCAATATAAAGATCTCTCACTTATTTAAA	0.549		
ACAGACGAAGGAGCCGCACAGAAGTTATTAAGGGATGAATAATCCCTCAATATAAATATCTCTCACTTATTTAAA	1.04	0.962	1.07
ACAGACGAAGGAGCCGCACAGAAGTTATTAAGGGATGAATAATCCCTCAATATACATATCTCTCACTTATTTAAA	1.13		
ACAGACGAAGGAGCCGCACAGAAGTTATTAAGGGATGAATAATCCCTGAATATAAATATCTCTCACTTATTTAAA	0.523		
ACAGACGAAGGAGCCGCACAGAAGTTATTAAGGGATGAATAATCCCTTAATATAAATATCTCTCACTTATTTAAA	0.633		
ACAGACGAAGGAGCCGCACAGAAGTTATTAAGGGATGAATAATCCTTCAATATAAATATCTCTCACTTATTTAAA	0.469	0.461	
ACAGACGAAGGAGCCGCACAGAAGTTATTAAGGGATTAATAATCACTCAATATAAATATCTCTCACTTATTTAAA	0.293		
ACAGACGAAGGAGCCGCACAGAAGTTATTAAGGGATTAATAATCCCTCAATATAAATATCTCTCACTTATTTAAA	0.962		
ACAGACGAAGGAGCCGCACAGAAGTTATTAAGGGTTGAATAATCCCTCAATATAAATATCTCTCACTTATTTAAA	0.473		
ACAGACGAAGGAGCCGCACAGAAGTTATTAAGGTATGAATAATCCCTCAATATAAATATCTCTCACTTATTTAAA	0.198	0.102	
ACAGACGAAGGAGCCGCACAGAAGTTATTAAGTGATGAATAATCCCTCAATATAAATATCTCTCACTTATTTAAA	0.126	0.106	
ACAGACGAAGGAGCCGCACAGAAGTTATTAATGGATGAATAATCCCTCAATATAAATATCTCTCACTTATTTAAA	0.165	0.103	
ACAGACGAAGGAGCCGCACAGAAGTTATTCAGGGATGAATAATCCCTCAATATAAATATCTCTCACTTATTTAAA	1.28		
ACAGACGAAGGAGCCGCACAGAAGTTATTTAGGGATGAATAATCCCTCAATATAAATATCTCTCACTTATTTAAA	0.843		
ACAGACGAAGGAGCCGCACAGAAGTTCTTAAGGGATGAATAATCCCTCAATATAAATATCTCTCACTTATTTAAA	0.275		

Sequence	cleaved RNA product abundance [1]	cleaved RNA product abundance [2]	cleaved RNA product abundance [3]
ACAGACGAAGGAGCCGCACAGAATTTATTAAGGGATGAATAATCCCTCAATATAAATATCTCTCACTTATTTAAA	0.488	0.544	
ACAGACGAAGGAGCCGCACAGATGTTATTAAGGGATGAATAATCCCTCAATATAAATATCTCTCACTTATTTAAA	1.11		
ACAGACGAAGGAGCCGCACATAAGTTATTAAGGGATGAATAATCCCTCAATATAAATATCTCTCACTTATTTAAA	1.07	0.732	
ACAGACGAAGGAGCCGCAGAAAAGTTATTAAGGGATGAATAATCCCTCAATATAAATATCTCTCACTTATTTAAA	1.24	1.14	
ACAGACGAAGGAGCCGCAGACAAGTTATTAAGGGATGAATAATCCCTCAATATAAATATCTCTCACTTATTTAAA	0.844		
ACAGACGAAGGAGCCGCAGAGAAGTTAATAAGGGATGAATAATCCCTCAATATAAATATCTCTCACTTATTTAAA	0.449		
ACAGACGAAGGAGCCGCAGAGAAGTTATAAAGGGATGAATAATCCCTCAATATAAATATCTCTCACTTATTTAAA	0.295		
ACAGACGAAGGAGCCGCAGAGAAGTTATCAAGGGATGAATAATCCCTCAATATAAATATCTCTCACTTATTTAAA	0.328		
ACAGACGAAGGAGCCGCAGAGAAGTTATTAAAGGATGAATAATCCCTCAATATAAATATCTCTCACTTATTTAAA	0.227	0.128	
ACAGACGAAGGAGCCGCAGAGAAGTTATTAAGAGATGAATAATCCCTCAATATAAATATCTCTCACTTATTTAAA	0.118	0.0994	
ACAGACGAAGGAGCCGCAGAGAAGTTATTAAGCGATGAATAATCCCTCAATATAAATATCTCTCACTTATTTAAA	0.171		
ACAGACGAAGGAGCCGCAGAGAAGTTATTAAGGAATGAATAATCCCTCAATATAAATATCTCTCACTTATTTAAA	0.143		
ACAGACGAAGGAGCCGCAGAGAAGTTATTAAGGGATGAATAATCCATCAATATAAATATCTCTCACTTATTTAAA	0.178		
ACAGACGAAGGAGCCGCAGAGAAGTTATTAAGGGATGAATAATCCCACAATATAAATATCTCTCACTTATTTAAA	0.235		
ACAGACGAAGGAGCCGCAGAGAAGTTATTAAGGGATGAATAATCCCTAAATATAAATATCTCTCACTTATTTAAA	0.755		
ACAGACGAAGGAGCCGCAGAGAAGTTATTAAGGGATGAATAATCCCTCAATATAAATAACTCTCACTTATTTAAA	0.451	0.518	
ACAGACGAAGGAGCCGCAGAGAAGTTATTAAGGGATGAATAATCCCTCAATATAAATATCTCTCACTTATTTAAA	0.799	0.839	0.208
ACAGACGAAGGAGCCGCAGAGAAGTTATTAAGGGATGAATAATCCCTCAGTATAAATATCTCTCACTTATTTAAA	0.337		
ACAGACGAAGGAGCCGCAGAGAAGTTATTAAGGGATGAATAATCCGTCAATATAAATATCTCTCACTTATTTAAA	0.294		
ACAGACGAAGGAGCCGCAGAGAAGTTATTAAGGGATGATTAATCCCTCAATATAAATATCTCTCACTTATTTAAA		0.638	

Sequence	cleaved RNA product abundance [1]	cleaved RNA product abundance [2]	cleaved RNA product abundance [3]
ACAGACGAAGGAGCCGCAGAGAAGTTATTAAGGGATTAATAATCCCTCAATATAAATATCTCTCACTTATTTAAA	0.696		
ACAGACGAAGGAGCCGCAGAGAAGTTATTAAGGGCTGAATAATCCCTCAATATAAATATCTCTCACTTATTTAAA	0.694		
ACAGACGAAGGAGCCGCAGAGAAGTTATTAAGGTATGAATAATCCCTCAATATAAATATCTCTCACTTATTTAAA	0.137		
ACAGACGAAGGAGCCGCAGAGAAGTTATTAAGTGATGAATAATCCCTCAATATAAATATCTCTCACTTATTTAAA	0.161		
ACAGACGAAGGAGCCGCAGAGAAGTTATTAATGGATGAATAATCCCTCAATATAAATATCTCTCACTTATTTAAA	0.184		
ACAGACGAAGGAGCCGCAGAGAAGTTTTTAAGGGATGAATAATCCCTCAATATAAATATCTCTCACTTATTTAAA	0.37		
ACAGACGAAGGAGCCGCAGATAAGTTATTAAGGGATGAATAATCCCTCAATATAAATATCTCTCACTTATTTAAA	0.636		
ACAGACGAAGGAGCCGCATAAAAGTTATTAAGGCATGAATAATCCCTCAATATAAATATCTCTCACTTATTTAAA	0.0533		
ACAGACGAAGGAGCCGCATAGAAATTATTAAGGGATGAATAATCCCTCAATATAAATATCTCTCACTTATTTAAA	0.574	0.834	
ACAGACGAAGGAGCCGCATAGAACTTATTAAGGGATGAATAATCCCTCAATATAAATATCTCTCACTTATTTAAA	0.499	0.341	
ACAGACGAAGGAGCCGCATAGAAGTAATTAAGGGATGAATAATCCCTCAATATAAATATCTCTCACTTATTTAAA	0.356		
ACAGACGAAGGAGCCGCATAGAAGTTAATAAGGGATGAATAATCCCTCAATATAAATATCTCTCACTTATTTAAA	0.304	0.239	
ACAGACGAAGGAGCCGCATAGAAGTTACTAAGGGATGAATAATCCCTCAATATAAATATCTCTCACTTATTTAAA	0.221	0.24	
ACAGACGAAGGAGCCGCATAGAAGTTATAAAGGGATGAATAATCCCTCAATATAAATATCTCTCACTTATTTAAA	0.339		
ACAGACGAAGGAGCCGCATAGAAGTTATCAAGGGATGAATAATCCCTCAATATAAATATCTCTCACTTATTTAAA	0.549		
ACAGACGAAGGAGCCGCATAGAAGTTATTAAAGGATGAATAATCCCTCAATATAAATATCTCTCACTTATTTAAA	0.199		
ACAGACGAAGGAGCCGCATAGAAGTTATTAACGGATGAATAATCCCTCAATATAAATATCTCTCACTTATTTAAA	0.193		
ACAGACGAAGGAGCCGCATAGAAGTTATTAAGAGATGAATAATCCCTCAATATAAATATCTCTCACTTATTTAAA	0.154		
ACAGACGAAGGAGCCGCATAGAAGTTATTAAGCGATGAATAATCCCTCAATATAAATATCTCTCACTTATTTAAA	0.122		
ACAGACGAAGGAGCCGCATAGAAGTTATTAAGGAATGAATAATCCCTCAATATAAATATCTCTCACTTATTTAAA	0.135	0.082	
